Legend:
Assay in all cases: fluorescence polarisation; two-dimensional fluorescence anisotropy; 14-3-3β titrated to FITC-labeled F1, F2, F3, F4 or pepD (10 nM) with varying concentrations of ChREBP peptide; fitted to a thermodynamic cooperativity model with KD II fixed at 1.5 µM; n = 2
Conditions in all cases: both partners purified
macrocycle F4 = biological target: T1, macrocycle F4 (not fully specified; fluorescein isothiocyanate (FITC) on the side chain of the first lysine; β-alanine after it; phosphoserine; triazole from azido phenylalanine (replacing Nph(+1)) cyclised to the …)
T1 chain: SFSXFKXK

FITC-labeled pepD = FITC-labeled pepD (FITC label (position not given); phosphoserine (pSer); 4-nitrophenylalanine Nph(+1) and Nph(+4), counting from pSer)
macrocycle F1 = biological target: T2, macrocycle F1 (not fully specified; fluorescein isothiocyanate (FITC) on the side chain of the first lysine; β-alanine after it; phosphoserine; triazole from azido phenylalanine (replacing Nph(+1)) cyclised to the …)
T2 chain: SFSXFKXK

macrocycle F3 = biological target: T3, macrocycle F3 (not fully specified; fluorescein isothiocyanate (FITC) on the side chain of the first lysine; β-alanine after it; phosphoserine; triazole from azido phenylalanine (replacing Nph(+1)) cyclised to the …)
T3 chain: SFSXFKXK

B1: 14-3-3β (natural protein, UniProt P31946 1-246, looked up)
chain: MTMDKSELVQKAKLAEQAERYDDMAAAMKAVTEQGHELSNEERNLLSVAYKNVVGARRSSWRVISSIEQKTERNEKKQQMGKEYREKIEAELQDICNDVLELLDKYLIPNATQPESKVFYLKMKGDYFRYLSEVASGDNKQTTVSNSQQAYQEAFEISKKEMQPTHPIRLGLALNFSVFYYEILNSPEKACSLAKTAFDEAIAELDTLNEESYKDSTLIMQLLRDNLTLWTSENQGDEGDAGEGEN
notes: 14-3-3 protein, beta isoform; also called 14-3-3 protein
cooperativity factor α with ChREBP peptide (macrocycle F4): 42 ± 1
cooperativity factor α with ChREBP peptide (FITC-labeled pepD): 38 ± 2
cooperativity factor α with ChREBP peptide (macrocycle F1): 339 ± 35
cooperativity factor α with ChREBP peptide (macrocycle F3): 12 ± 1
